In the Human Domainome abundance scans (Beltran et al. 2025):

B1: Protein S100-G, residues 1 to 79; numbered along this chain, P02633 (parent)
chain: MSAKKSPEELKGIFEKYAAKEGDPNQLSKEELKLLLQTEFPSLLKGPSTLDELFEELDKNGDGEVSFEEFQVLVKKISQ
B2: WW domain-containing transcription regulator protein 1, residues 116 to 162; numbered along this chain, Q9GZV5 (parent)
chain: QSYDVTDELPLPPGWEMTFTATGQRYFLNHIEKITTWQDPRKAMNQP

Variants of: B1
Assay: abundance fitness (aPCA) (normalised: wild type 0, dead -1); higher = more abundant; growth selection in yeast, the domain comes from the species named
Details: Bos taurus

Abundance fitness, by site and new letter:
K75: W -0.125, Y -0.173
Q79: R 0.16, E 0.272, N -0.154, C -0.032, G 0.074, P 0.254, W -0.086, K 0.046, Y -0.148, D -0.191, H -0.048, V -0.086, M 0.026, I -0.346, A 0.008, L -0.017, S 0.041, T 0.085
K76: Q -0.056, S -0.119, V -0.191, C -0.29, P -0.238, N -0.196, I -0.131, E -0.126, Y -0.325, M -0.218, W -0.293, D -0.127, T -0.175, L -0.247, G 0.011, R -0.094, H -0.153
S78: F -0.25, L -0.188, G -0.329, A 0.245, M -0.049, Y -1.23, P 0.258
I77: K -0.148, S -0.165, H -0.155, G -0.111, L -0.073, F 0.051, M -0.143, C -0.136, Y -0.104, D -0.17, Q -0.092, T -0.14, W -0.176, N -0.025, A -0.169, V -0.158, R -0.179, E -0.142

Variants of: B2
Assay: as above
Details: Homo sapiens

Abundance fitness, by site and new letter:
S2: F -0.035, V -0.148, C -0.192, W -0.406, E -0.274, H 0.149, A -0.255, G -0.034, K -0.074, P -0.45, M -0.017, T -0.092, Y -0.226, I -0.026, N 0.361, D 0.057, Q -0.167, L -0.093
Y3: Q -0.2, V -0.472, C 0.262, M 0.182, L -0.323, I 0.274, P 0.087, H 0.013
P12: E -0.601, I -0.873, N -0.556, Y -0.61, K -0.782, A -0.467, R -0.692, M -0.862, H -0.907, T -0.758, F -0.997, G -0.49, W -0.826, Q -0.494, L -0.738, V -0.921, C -0.716, D -0.604
D7: H 0.053, N -0.041, R -0.166, C -0.202, F -0.312, Q -0.178, S -0.104, I -0.195, V -0.207, E -0.314, A -0.049, T -0.065, K -0.041, M -0.185, W -0.45, G -0.154, Y -0.268
L9: R 0.027, Y -0.035, C -0.103, A 0.044, V 0.05, E -0.028, N -0.009, T 0.117, H -0.043, F -0.082, K -0.064, I 0.022, D 0.028, Q 0.022, S -0.003, P -0.001, W -0.087, M -0.009, G -0.027
P10: S -0.109, T -0.045, V -0.188, R -0.224, K -0.115, E -0.058, A -0.088, W -0.393, H -0.181, L -0.25, M -0.212, C -0.374, D -0.083, Y -0.351, G -0.12, I -0.174, Q -0.123, N -0.129, F -0.342
D4: N 0.053, L -0.147, A -0.083, Y 0.048, R -0.151, P -0.071, S -0.089, H -0.207, K -0.014, T -0.162, I -0.189, G -0.198, Q -0.404, E -0.072, W -0.381, F -0.152, C 0.049
E16: S -0.081, F -0.326, T -0.215, G -0.22, L -0.364, W -0.389, C -0.28, R -0.365, I -0.266, N -0.58, A -0.217, Q -0.035, Y -0.78, D -0.039, P -0.864, H -0.684, M -0.387, V -0.193
L11: N -0.789, F -0.08, I -0.337, K -0.746, Q -0.684, H -0.676, M -0.07, S -0.609, R -0.847, E -0.767, V -0.381, Y -0.493, P -0.556, A -0.715, G -0.731, T -0.548, C -0.432, W -0.686, D -0.732
G14: Q -0.467, I -1, R -0.583, V -0.748, E -0.21, P -0.378, A -0.365, C -0.475, L -0.823, F -0.534, M -0.505, W -0.491, D -0.259, N -0.071, S -0.379, K -0.466, Y -0.421
P13: L -0.124, K -0.084, D -0.012, E -0.043, V -0.058, Q 0.026, R -0.082, W -0.245, I -0.18, C -0.222, Y -0.112, F -0.093, N -0.022, S -0.067, G -0.136, T -0.072, M -0.168, H -0.014, A -0.043
E8: F -0.302, W -0.78, G -0.07, K -0.005, M 0.065, Y -0.248, I -0.274, T 0.01, L -0.253, C -0.163, N -0.128, A -0.027, P -0.09, R -0.109, S -0.071, D -0.084, V -0.118
T6: R -0.086, Q -0.142, I -0.032, S -0.03, Y -0.189, V -0.06, N -0.198, L -0.104, C -0.071, A -0.196, E -0.216, F -0.074, H -0.352, D -0.104, P -0.013, M -0.008
Q1: V -0.45, I 0.001, T -0.492, M 0.26, E -0.182, Y -0.132, H -0.704, G -0.163, A -0.519, R -0.365, D -0.005
W15: P -1.09, N -0.616, D -0.532, Y -0.351, V -0.69, C -0.627, G -0.636, F -0.311, M -0.695, E -0.689, I -0.802, T -0.753, H -0.876, L -0.89, Q -0.5, A -0.913, K -0.784, R -0.625, S -0.686
M17: E 0.017, F -0.172, C -0.035, D -0.414
V5: M -0.026, L -0.103, R -0.111, Y -0.354, C -0.126, H -0.231, G -0.194, K -0.023, E -0.088, I 0.029, Q -0.145, P -0.224, A -0.088, N -0.033, S -0.053, T 0.011
